Experimental data as given in patent US20230184767.

System: infectious human adenovirus 2 (HAdV-2, whole virus) (Human adenovirus 2)
Assay: ELONA
Conditions: SELEX buffer 20 mM Tris, 100 mM NaCl, 2.5 mM MgCl2, pH 7.2, room temperature

**Q.** “GGCTGCAGCTGAAGCACTGGTTTTGAGTCAAACCCAGACGATGGA [Apt-HAdV]” was tested. Which Kd did it give?
**A.** 0.9 nM
